# According to PMC9352680, “A comprehensive thermodynamic model for RNA binding by the Saccharomyces cerevisiae Pumilio protein PUF4”:
# Residue numbers refer to the chain shown, from its start. In names and notes the source's numbering stands.
# T1: PUF4 RNA-binding domain (Saccharomyces cerevisiae, UniProt P25339 537-888)
# T1 sequence: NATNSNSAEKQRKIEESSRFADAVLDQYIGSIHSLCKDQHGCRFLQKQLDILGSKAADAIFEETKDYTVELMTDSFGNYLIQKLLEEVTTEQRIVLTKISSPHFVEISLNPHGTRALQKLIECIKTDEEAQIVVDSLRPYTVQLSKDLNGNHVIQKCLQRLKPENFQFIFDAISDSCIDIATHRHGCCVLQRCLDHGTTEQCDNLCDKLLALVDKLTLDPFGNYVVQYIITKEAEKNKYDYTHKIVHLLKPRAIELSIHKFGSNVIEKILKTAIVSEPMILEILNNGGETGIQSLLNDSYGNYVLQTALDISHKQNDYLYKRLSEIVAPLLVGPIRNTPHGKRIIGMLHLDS
# B1: Ic_S2_P5E.1_K5.1_C5.1_H5.1_A5.1_[T5C]_[T6C]_F5.1_[T8C]_[T9C]_[A10C]_T5.1 (ssRNA)
# RNA: UUUGAUUAAUAUGAUAUCGUUCUUUCUUGUACCACCCUUCUUUCUCGAUAUCAUAUUAAUCUUU
# B2: Ic_S2_P5E.1_K5.1_C5.1_H5.1_A5.1_[T5C]_[A7G]_F5.1_[T9A]_[A10T]_T5.1 (ssRNA)
# RNA: B1 RNA with C33U, A34G, C35U, C36A, C37U
# B3: Ic_S2_P5E.1_K5.1_C5.1_H5.1_A5.1_[T6C]_F5.1_[T9G]_[A10C]_T5.1 (ssRNA)
# RNA: B1 RNA with C32U, C35U, C36G
# B4: Ic_S2_P5E.1_K5.1_C5.1_H5.1_A5.1_[T5C]_[T6A]_[A7C]_F5.1_[T9C]_[A10C]_T5.1 (ssRNA)
# RNA: B1 RNA with C33A, A34C, C35U
# B5: Ic_S2_P5E.1_K5.1_C5.1_H5.1_A5.1_[T5C]_[T6C]_F5.1_[T8C]_[T9C]_[A10G]_T5.1 (ssRNA)
# RNA: B1 RNA with C37G
# B6: Ic_S2_P5E.1_K5.1_C5.1_H5.1_A5.1_[T5G]_[A7C]_F5.1_[T8G]_[T9C]_[A10C]_T5.1 (ssRNA)
# RNA: B1 RNA with C32G, C33U, A34C, C35G
# B7: Ic_S2_P5E.1_K5.1_C5.1_H5.1_A5.1_[T5C]_[T6A]_[A7G]_F5.1_[T9C]_[A10C]_T5.1 (ssRNA)
# RNA: B1 RNA with C33A, A34G, C35U
# B8: Ic_S2_P5E.1_K5.1_C5.1_H5.1_A5.1_[T6C]_[A7T]_F5.1_[T8A]_T5.1 (ssRNA)
# RNA: B1 RNA with C32U, A34U, C35A, C36U, C37A
# B9: Ic_S2_P5E.1_K5.1_C5.1_H5.1_A5.1_[T6C]_[A7G]_F5.1_[T9A]_[A10C]_T5.1 (ssRNA)
# RNA: B1 RNA with C32U, A34G, C35U, C36A
# B10: Ic_S2_P5E.1_K5.1_C5.1_H5.1_A5.1_[T6A]_[A7C]_F5.1_[T8C]_[T9C]_[A10G]_T5.1 (ssRNA)
# RNA: B1 RNA with C32U, C33A, A34C, C37G
# B11: Ic_S2_P5E.1_K5.1_C5.1_H5.1_A5.1_[T5C]_[T6A]_F5.1_[T8A]_[T9A]_[A10T]_T5.1 (ssRNA)
# RNA: B1 RNA with C33A, C35A, C36A, C37U
# B12: Ic_S2_P5E.1_K5.1_C5.1_H5.1_A5.1_[A7C]_F5.1_[T8G]_[A10T]_T5.1 (ssRNA)
# RNA: B1 RNA with C32U, C33U, A34C, C35G, C36U, C37U
# B13: Ic_S2_P5E.1_K5.1_C5.1_H5.1_A5.1_[T5C]_[T6A]_[A7T]_F5.1_[T9A]_[A10C]_T5.1 (ssRNA)
# RNA: B1 RNA with C33A, A34U, C35U, C36A
# B14: Ic_S2_P5E.1_K5.1_C5.1_H5.1_A5.1_[T6A]_[A7C]_F5.1_[T9A]_[A10G]_T5.1 (ssRNA)
# RNA: B1 RNA with C32U, C33A, A34C, C35U, C36A, C37G
# B15: Ic_S2_P5E.1_K5.1_C5.1_H5.1_A5.1_[T5C]_[T6C]_F5.1_[T8G]_[A10C]_T5.1 (ssRNA)
# RNA: B1 RNA with C35G, C36U
# B16: Ic_S2_P5E.1_K5.1_C5.1_H5.1_A5.1_[T5C]_F5.1_[T8C]_[T9C]_[A10C]_T5.1 (ssRNA)
# RNA: B1 RNA with C33U
# B17: Ic_S2_P5E.1_K5.1_C5.1_H5.1_A5.1_[T5C]_[T6A]_F5.1_[T9C]_[A10T]_T5.1 (ssRNA)
# RNA: B1 RNA with C33A, C35U, C37U
# B18: Ic_S2_P5E.1_K5.1_C5.1_H5.1_A5.1_[T5G]_[A7C]_F5.1_[T8A]_[A10G]_T5.1 (ssRNA)
# RNA: B1 RNA with C32G, C33U, A34C, C35A, C36U, C37G
# B19: Ic_S2_P5E.1_K5.1_C5.1_H5.1_A5.1_[T5C]_[T6C]_[A7C]_F5.1_[A10T]_T5.1 (ssRNA)
# RNA: B1 RNA with A34C, C35U, C36U, C37U
# B20: Ic_S2_P5E.1_K5.1_C5.1_H5.1_A5.1_[T6A]_[A7T]_F5.1_[T9C]_[A10C]_T5.1 (ssRNA)
# RNA: B1 RNA with C32U, C33A, A34U, C35U
# B21: Ic_S2_P5E.1_K5.1_C5.1_H5.1_A5.1_[T6G]_[A7T]_F5.1_[T9C]_[A10C]_T5.1 (ssRNA)
# RNA: B1 RNA with C32U, C33G, A34U, C35U
# B22: Ic_S2_P5E.1_K5.1_C5.1_H5.1_A5.1_[T5C]_[T6A]_[A7C]_F5.1_[T8A]_[A10G]_T5.1 (ssRNA)
# RNA: B1 RNA with C33A, A34C, C35A, C36U, C37G
# B23: Ic_S2_P5E.1_K5.1_C5.1_H5.1_A5.1_[T5A]_[A7T]_F5.1_[T9C]_[A10G]_T5.1 (ssRNA)
# RNA: B1 RNA with C32A, C33U, A34U, C35U, C37G
# B24: Ic_S2_P5E.1_K5.1_C5.1_H5.1_A5.1_[T6A]_[A7G]_F5.1_[T8C]_[T9C]_[A10T]_T5.1 (ssRNA)
# RNA: B1 RNA with C32U, C33A, A34G, C37U
# B25: Ic_S2_P5E.1_K5.1_C5.1_H5.1_A5.1_[T6C]_[A7G]_F5.1_[T8A]_[A10C]_T5.1 (ssRNA)
# RNA: B1 RNA with C32U, A34G, C35A, C36U
# B26: Ic_S2_P5E.1_K5.1_C5.1_H5.1_A5.1_[T5A]_F5.1_[T8A]_[A10G]_T5.1 (ssRNA)
# RNA: B1 RNA with C32A, C33U, C35A, C36U, C37G
# B27: Ic_S2_P5E.1_K5.1_C5.1_H5.1_A5.1_[T6G]_[A7C]_F5.1_[T8C]_[T9C]_[A10T]_T5.1 (ssRNA)
# RNA: B1 RNA with C32U, C33G, A34C, C37U
# B28: Ic_S2_P5E.1_K5.1_C5.1_H5.1_A5.1_[T6C]_[A7G]_F5.1_[T8C]_[T9C]_T5.1 (ssRNA)
# RNA: B1 RNA with C32U, A34G, C37A
# Molecular target: T1, PUF4 RNA-binding domain
# Test: Mg; RNA-MaP; 20 mM Na-HEPES pH 7.4, 30 mM KOAc, 0.75 mM MgCl2, 0.1% Tween-20, 5% glycerol, 0.1 mg/mL BSA, 2 mM DTT; 25 C; 0.0125-409.6 nM protein
# Conditions: tags: N-His6-TEV cleaved; C-SNAP kept, Cy3B-labelled; label: tethered on chip by stalled RNA polymerase
row,Binder,Kd
1,B1,347 nM
2,B2,2.45 nM
3,B3,12.1 nM
4,B4,5.44 nM
5,B5,619 nM
6,B6,1490 nM
7,B7,13.5 nM
8,B8,3.38 nM
9,B9,28 nM
10,B10,69.2 nM
11,B11,8.8 nM
12,B12,67.8 nM
13,B13,0.894 nM
14,B14,1.41 nM
15,B15,192 nM
16,B16,245 nM
17,B17,7.59 nM
18,B18,450 nM
19,B19,8.63 nM
20,B20,2.26 nM
21,B21,11.9 nM
22,B22,114 nM
23,B23,108 nM
24,B24,61.4 nM
25,B25,1490 nM
26,B26,183 nM
27,B27,582 nM
28,B28,844 nM
29,UCUCUUUGUUUAUAAUCUCUU (ssRNA) [Ib_S1_P4E.1_K4.1_C4.1_H4.1_[A4T]_A4.1_F4.1_[T8A]_T4.1],495 nM
